Earlier results in patent EP4803095A2, “FORMULATIONS OF GLUCAGON-LIKE-PEPTIDE-2 (GLP-2) ANALOGUES” (Zealand Pharma A/S, priority 2018, dated 2026).
Read-outs that look alike come from different tables or passages of the source.

Conditions: for half-life in humans: background art

| Substance | half-life in humans | half-life (in vivo) | half-life in humans (listed as native GLP-2) |
| --- | --- | --- | --- |
| GLP-2 [3-33]: truncated GLP-2 [3-33] (DGSFSDEMNTILDNLAARDFINWLIQTKITD; Glucagon-like peptide 2; UniProt P01275 148-178, looked up, fragment) | ~27 min |  |  |
| teduglutide: GLP-2 analogue containing Gly substitution at position 2 |  | about two |  |
| Hy-His-Ala-Asp-Gly-Ser-Phe-Ser-Asp-Glu-Met-Asn-Thr-Ile-Leu-Asp-Asn-Leu-Ala-Ala-Arg-Asp-Phe-Ile-Asn-Trp-Leu-Ile-Gln-Thr-Lys-Ile-Thr-Asp-OH [GLP-2 [1-33]] | around 7 minutes |  | seven |
